Assay results from paper doi:10.1101/2019.12.17.880419.
Where two headings read alike, the source gives them in different places.

Assays:
Test in all cases: ITC
UHRF1 SRA [1] = biological target: T1, UHRF1 SRA (mouse, UniProt Q8VDF2 417-628)
T1 sequence: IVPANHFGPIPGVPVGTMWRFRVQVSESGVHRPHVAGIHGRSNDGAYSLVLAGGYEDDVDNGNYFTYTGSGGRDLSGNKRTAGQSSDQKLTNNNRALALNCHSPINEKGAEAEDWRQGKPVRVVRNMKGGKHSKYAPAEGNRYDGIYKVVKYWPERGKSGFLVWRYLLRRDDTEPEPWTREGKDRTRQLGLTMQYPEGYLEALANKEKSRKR

UHRF1 SRA [2] = biological target: T1, UHRF1 SRA; remark: listed apart in the source
UHRF1 SRA [3] = biological target: T1, UHRF1 SRA; remark: listed apart in the source
UHRF1 SRA [4] = biological target: T1, UHRF1 SRA; remark: listed apart in the source

B1: fully-mCHG DNA (ITC) (dsDNA)
DNA 1: TCACGCTGCGTGA
DNA 2: TCACGCTGCGTGA
modifications: 5mC on both strands in CHG context
UHRF1 SRA [1]
  Kd: 1850 ± 60 nM

B2: hemi-mCG DNA (dsDNA)
DNA 1: GCAATCCGGTAG
DNA 2: CTACCGGATTGC
modifications: 5mC on one strand in CG context
UHRF1 SRA [2]
  Kd: 640 ± 120 nM

B3: fully-mCG DNA (dsDNA)
DNA 1: CAGCTCGAGCTG
DNA 2: CAGCTCGAGCTG
modifications: 5mC on both strands in CG context
UHRF1 SRA [3]
  Kd: 4.13 ± 0.09 µM

B4: mCH DNA (dsDNA)
DNA 1: TCATCAGTGAT
DNA 2: TCACTGATGAC
modifications: 5mC in CH context
UHRF1 SRA [4]
  Kd: 1160 ± 90 nM
